# Data published in publication PMC10415141 (Nucleic Acids Research, 2023).
# T1: human MCM8 (HsMCM8), wild type, N-terminal StrepII tag and TEV site (human, UniProt Q9UJA3 1-840)
# T1 sequence (looked up): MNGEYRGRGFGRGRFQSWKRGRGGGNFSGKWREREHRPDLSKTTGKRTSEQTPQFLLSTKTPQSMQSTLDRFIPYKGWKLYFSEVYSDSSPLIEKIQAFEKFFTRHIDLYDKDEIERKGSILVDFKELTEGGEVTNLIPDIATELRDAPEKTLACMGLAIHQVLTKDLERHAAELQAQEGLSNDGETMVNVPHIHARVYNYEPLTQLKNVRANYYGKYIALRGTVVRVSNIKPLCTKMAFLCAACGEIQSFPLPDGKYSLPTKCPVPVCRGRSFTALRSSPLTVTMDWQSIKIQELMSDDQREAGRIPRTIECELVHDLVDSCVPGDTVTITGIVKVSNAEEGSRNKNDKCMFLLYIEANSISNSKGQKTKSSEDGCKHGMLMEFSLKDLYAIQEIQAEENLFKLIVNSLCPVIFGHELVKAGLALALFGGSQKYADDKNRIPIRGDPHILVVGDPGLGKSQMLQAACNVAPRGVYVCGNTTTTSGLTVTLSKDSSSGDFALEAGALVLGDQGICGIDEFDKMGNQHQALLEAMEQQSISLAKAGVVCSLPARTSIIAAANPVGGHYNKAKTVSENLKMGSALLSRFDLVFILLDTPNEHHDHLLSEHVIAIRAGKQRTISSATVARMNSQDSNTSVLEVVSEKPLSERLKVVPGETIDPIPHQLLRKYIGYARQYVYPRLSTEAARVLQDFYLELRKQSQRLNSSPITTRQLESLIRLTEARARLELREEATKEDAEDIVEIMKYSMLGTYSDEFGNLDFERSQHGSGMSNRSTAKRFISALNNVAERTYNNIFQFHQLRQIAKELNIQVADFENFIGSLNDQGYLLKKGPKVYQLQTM
# Molecular target: T1, human MCM8 (HsMCM8), wild type, …
# Assay: SEC
binder,measurement,value
"human MCM9 truncated to the first 680 amino acids (MCM9^680), wild type, N-terminal 6xHis tag (domain or fragment) not shown",stoichiometry N,1
